For assay [1], the system named is 293T cells. In words: Level of HA-tagged SMN proteins, Western blot with anti-HA antibody. Type of assay: cell-based. The conditions noted are these: without MG132 treatment. Here is the method:
FIG. 3, comprising FIG. 3A through FIG. 3D, is a series of images depicting the importance of residue S270 for the activity of the SMNΔ7-DEG through YG+EMLA. FIG. 3A is a schematic illustration depicting seven residues in the YG box that were each mutated to alanine, as indicated. […] depicts the results of Western blot analyses using an anti-HA tag antibody directed against HA-tagged SMN, SMNΔ7, and SMNΔ7^S270A expressed in 293T cells treated with DMSO or 10 μM MG132 (MG) for 16 hours. Fusion proteins were monitored by, and Magoh was used as a control. FIG. 3C is a graph depicting the quantification of HA-tagged proteins depicted in FIG. 3B and compared to HA-SMN without MG132 treatment. Protein amount (%) for SMNΔ7, and SMNΔ7^S270A are calculated relative to HA-SMN not treated with MG132, that is arbitrarily set to 100%. The fold change of each fusion protein amount upon MG132 treatment is indicated in red above the column. […]
To identify specific residues in the SMN07-DEG that are important for its activity, mutagenesis of the YG box was performed wherein every second residue was converted to alanine in the context of full-length SMNΔ7 and determined the half-life of each in 293T cells. […] The levels of the tagged SMN proteins were then monitored by Western blots using anti-HA antibody (FIG. 3B).
(In general: A western blot detects proteins with antibodies after separation by electrophoresis.)

Assay [2] deals with 293T cells. In words: Protein stability assay: luciferase activity of Luc-fused constructs after CHX treatment. The format is cell-based. The following applies: Luc fusion in 293T cells, CHX 0.1 mg/ml, up to 10 hours. From the text:
To construct plasmids expressing Luc-fused proteins, the luciferase gene was cloned into pcDNA3.1 vector at HindIII/KpnI sites, then DNA fragments encoding full-length wild type human SMN, SMNΔ7, several deletion mutants of SMNΔ7, and optiPEST were inserted into the KpnI/XhoI sites. SMNΔ7 mutants with single amino acid change were generated by mutating residues in YG+EMLA to alanine by Quickchange site-directed mutagenesis kit (Stratagene).
Cells (293T cells) were transfected with plasmids expressing various constructs including Luc-SMN, Luc-SMNΔ7, GFP-YG+EMLA or GFP-NS. Forty-eight hours after transfection, the cells were treated with CHX (0.1 mg/ml) for various times as indicated and then assayed for luciferase activity. Luciferase activity at each time point was calculated by comparison to those at time 0, which was set to 100%. Luciferase activities were measured using One-Glo reagent (Promega).
A reporter system that recapitulates the differential stability of full-length SMN and SMNΔ7 and allows quantitative assessment of SMNΔ7's instability determinants was developed. […] Forty-eight hours after transfection, cells were treated with the protein synthesis inhibitor cycloheximide (CHX), and luciferase activity was measured at time intervals of up to 10 hours. […]

In the next assay the test system is S5 cells. Nature of the assay: Rescue of S5 cell viability after tetracycline depletion of SMN. The format is cell-based, chicken. The following applies: retroviral expression, one week after tetracycline (1 μg/ml). As to the method:
FIG. 4, comprising FIG. 4A through FIG. 4D, is a series of images depicting the functionality of SMNΔ7^S270A in snRNP assembly and its ability to rescue SMN-deficient cells. FIG. 4 A is a series of panels depicting S5 cells cultured in the presence of tetracycline (1 μg/ml) to deplete endogenous SMN and infected with retroviruses expressing SMN, SMNΔ7, or SMNΔ7^S270A. FIG. 4B is a graph depicting cell growth as in FIG. 4A measured by monitoring the number of live cells at the indicated time points following tetracycline addition. FIG. 4C depicts the results of Western blot analyses of SMN protein in rescued cells (10 days after tetracycline addition). FIG. 4D is a graph depicting SMN complex activity (%) as measured by in vitro snRNP assembly on U4 snRNA in cytoplasmic extracts from rescued cells, using U4ΔSm RNA as a control.
S5 cells were maintained and infected with retroviruses expressing SMN, SMNΔ7, and SMNΔ7^S270A as described (Wang et al., 2001, J. Biol. Chem. 276:9599).
To determine whether SMNΔ7^S270A is a functional SMN protein, a previously established cell system, the S5 cell line, was used to investigate if SMNΔ7^S270A could rescue the viability of SMN-depleted cells. […]

B1: SMNΔ7: SMN protein from exon 7 skipping, lacks C-terminal 16 amino acids and acquires EMLA (protein, listed as Homo sapiens)
chain: MAMSSGGSGGGVPEQEDSVLFRRGTGQSDDSDIWDDTALIKAYDKAVASFKHALKNGDICETSGKPKTTPKRKPAKKNKSQKKNTAASLQQWKVGDKCSAIWSEDGCIYPATIASIDFKRETCVVVYTGYGNREEQNLSDLLSPICEVANNIEQNAQENENESQVSTDESENSRSPGNKSDNIKPKSAPWNSFLPPPPPMPGPRLGPGKPGLKFNGPPPPPPPPPPHLLSCWLPPFPSGPPIIPPPPPICPDSLDDADALGSMLISWYMSGYHTGYYMEMLA
In the case of B1, in the assay on 293T cells [1], the “amount of HA-tagged protein” value was “much lower than that of SMN”. The “half-life (t1/2)” value in the assay on 293T cells [2] is roughly 3 h. Also, in the assay on S5 cells, the “rescue of viability of SMN-depleted S5 cells” value is “did not”.

These data come from patent publication US8993741B2, “SMNdelta7 degron: novel compositions and methods of use” (The Trustees of the University of Pennsylvania, priority 2009, dated 2015).
